Results on 125 sequences are retold here after the supplement of paper PMC9112550, “Optimization of the antimicrobial peptide Bac7 by deep mutational scanning” (BMC Biology, 2022).

The test system of this data set is Escherichia coli TOP10. In words: shrunken log2 fold change of peptide-encoding DNA abundance (4.5 h post-induction vs induction); higher = less antimicrobial activity (less host growth inhibition). To be noted: time post-induction: 4.5 h; library: site-saturation at positions 5, 18, 19, 20.
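Note: peptides expressed intracellularly from a pBAD plasmid library in pooled LB shake-flask culture, induced with 0.3% L-arabinose, DNA abundance read by NGS, three biological replicates, DESeq2 with apeglm shrinkage.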

On to RRIRWRPPRLPRPRPRPPNEPRP, for which the “shrunken log2 fold change” value worked out at 0.424.
For RRIRWRPPRLPRPRPRPMQQPRP, the “shrunken log2 fold change” value amounted to 0.056.
Under RRIRRRPPRLPRPRPRPCSIPRP stands -0.0224; under RRIRPRPPRLPRPRPRPKDGPRP, 0.0462.
Under RRIRYRPPRLPRPRPRPKDWPRP stands -0.176; under RRIRPRPPRLPRPRPRPWMMPRP, -0.03.
The same measure for RRIRWRPPRLPRPRPRPGYFPRP: -0.152.
Regarding RRIRARPPRLPRPRPRPSMEPRP, the “shrunken log2 fold change” value amounted to 0.146.
Take RRIRCRPPRLPRPRPRPSDWPRP: the “shrunken log2 fold change” value was -0.0723.
For RRIRWRPPRLPRPRPRPEEHPRP, the “shrunken log2 fold change” value stood at 0.23.
The same measure for RRIRTRPPRLPRPRPRPSCLPRP: -0.624.
Consider RRIRERPPRLPRPRPRPAAQPRP, for which the “shrunken log2 fold change” value was 0.261.
The same measure for RRIRMRPPRLPRPRPRPCIMPRP: -0.533; for RRIRDRPPRLPRPRPRPRYDPRP: -0.284; for RRIRVRPPRLPRPRPRPYFHPRP: -0.738.
The same measure for RRIRCRPPRLPRPRPRPSKVPRP: -0.156; for RRIRHRPPRLPRPRPRPMNYPRP: -0.316; for RRIRKRPPRLPRPRPRPIKVPRP: -0.386.
Take RRIRRRPPRLPRPRPRPAGEPRP: the “shrunken log2 fold change” value amounted to 0.75.
In the case of RRIRYRPPRLPRPRPRPFWIPRP, the “shrunken log2 fold change” value was -0.0013.
Under RRIRRRPPRLPRPRPRPAYFPRP stands 0.401; under RRIRNRPPRLPRPRPRPAWPPRP, 0.408; under RRIRYRPPRLPRPRPRPSKEPRP, -0.0167.
The same measure for RRIRVRPPRLPRPRPRPMQQPRP: 0.108; for RRIRTRPPRLPRPRPRPYINPRP: -0.879; for RRIRHRPPRLPRPRPRPIFEPRP: -0.0251.
Turning to RRIRQRPPRLPRPRPRPTHIPRP, the “shrunken log2 fold change” value was -0.387.
The same measure for RRIRVRPPRLPRPRPRPYQYPRP: -0.0296.
The same measure for RRIRVRPPRLPRPRPRPEADPRP: 0.0974; for RRIRLRPPRLPRPRPRPRNEPRP: -0.0675.
The same measure for RRIRYRPPRLPRPRPRPNHVPRP: -0.219.
As for RRIRPRPPRLPRPRPRPPYEPRP, the “shrunken log2 fold change” value is -0.145.
The same measure for RRIRMRPPRLPRPRPRPRKTPRP: 0.514; for RRIRYRPPRLPRPRPRPEKAPRP: 0.00447; for RRIRTRPPRLPRPRPRPPEWPRP: 0.442.
With RRIRPRPPRLPRPRPRPAILPRP, the “shrunken log2 fold change” value is -0.339.
Under RRIRLRPPRLPRPRPRPYGDPRP stands -0.0122.
For the sequence RRIRIRPPRLPRPRPRPCQSPRP, the “shrunken log2 fold change” value was -0.00131.
For RRIRCRPPRLPRPRPRPRLWPRP, the “shrunken log2 fold change” value is 1.01.
Turning to RRIRMRPPRLPRPRPRPKMSPRP, the “shrunken log2 fold change” value was found to be 0.123.
The same measure for RRIRRRPPRLPRPRPRPVPEPRP: 0.543; for RRIRCRPPRLPRPRPRPWVFPRP: -0.0816; for RRIRWRPPRLPRPRPRPRGEPRP: 0.397.
The same measure for RRIRLRPPRLPRPRPRPICLPRP: 0.193; for RRIRIRPPRLPRPRPRPRCPPRP: 0.0321; for RRIRSRPPRLPRPRPRPGFYPRP: -0.312.
For RRIRNRPPRLPRPRPRPGLIPRP, the “shrunken log2 fold change” value is 0.16.
As for RRIRRRPPRLPRPRPRPGVSPRP, the “shrunken log2 fold change” value came out at 0.249.
The same measure for RRIRKRPPRLPRPRPRPGFLPRP: 0.203.
Under RRIRRRPPRLPRPRPRPHVGPRP stands 0.0734.
For the sequence RRIRERPPRLPRPRPRPNCYPRP, the “shrunken log2 fold change” value was -0.342.
Under RRIRCRPPRLPRPRPRPGVHPRP stands -0.108.
Under RRIRERPPRLPRPRPRPHFYPRP stands -0.0121; under RRIRVRPPRLPRPRPRPLMGPRP, 0.0412.
The same measure for RRIRERPPRLPRPRPRPQVSPRP: -0.0262.
On to RRIRDRPPRLPRPRPRPNWNPRP, for which the “shrunken log2 fold change” value is -0.1.
Regarding RRIRERPPRLPRPRPRPNCTPRP, the “shrunken log2 fold change” value was -0.102.
Under RRIRDRPPRLPRPRPRPTYRPRP stands -0.224; under RRIRSRPPRLPRPRPRPKNRPRP, 0.0193; under RRIRDRPPRLPRPRPRPWFLPRP, 0.109.
The same measure for RRIRERPPRLPRPRPRPWMCPRP: -0.11.
With RRIRFRPPRLPRPRPRPLQHPRP, the “shrunken log2 fold change” value is -0.134.
The same measure for RRIRPRPPRLPRPRPRPWWKPRP: -0.0424.
The same measure for RRIRWRPPRLPRPRPRPCNLPRP: -0.161; for RRIRDRPPRLPRPRPRPEMDPRP: 0.0766; for RRIRPRPPRLPRPRPRPYQCPRP: -0.0702.
Under RRIRLRPPRLPRPRPRPCIHPRP stands -0.392; under RRIRERPPRLPRPRPRPFLAPRP, 0.0854; under RRIRVRPPRLPRPRPRPWGTPRP, -0.402.
As to RRIRSRPPRLPRPRPRPNMDPRP, the “shrunken log2 fold change” value was -0.184.
The same measure for RRIRTRPPRLPRPRPRPVFIPRP: -0.475; for RRIRFRPPRLPRPRPRPPGWPRP: 0.448; for RRIRVRPPRLPRPRPRPFDQPRP: -0.365.
Under RRIRRRPPRLPRPRPRPPGCPRP stands 0.417; under RRIRQRPPRLPRPRPRPQDWPRP, -0.146; under RRIRMRPPRLPRPRPRPPWPPRP, 1.1.
On to RRIRVRPPRLPRPRPRPYEAPRP, for which the “shrunken log2 fold change” value is -0.157.
For RRIRDRPPRLPRPRPRPQIIPRP, the “shrunken log2 fold change” value came out at 0.0399.
On to RRIRKRPPRLPRPRPRPSQSPRP, for which the “shrunken log2 fold change” value is 0.28.
Take RRIRKRPPRLPRPRPRPEDDPRP: the “shrunken log2 fold change” value stood at 0.00862.
The same measure for RRIRNRPPRLPRPRPRPIIIPRP: -0.663; for RRIRFRPPRLPRPRPRPDNSPRP: -0.726.
Turning to RRIRPRPPRLPRPRPRPHVEPRP, the “shrunken log2 fold change” value was found to be 0.107.
Under RRIRCRPPRLPRPRPRPYALPRP stands -0.115; under RRIRIRPPRLPRPRPRPPTGPRP, 0.209; under RRIRKRPPRLPRPRPRPPARPRP, 1.16.
Under RRIRLRPPRLPRPRPRPAGNPRP stands 0.116; under RRIRFRPPRLPRPRPRPWECPRP, -0.0123.
Turning to RRIRLRPPRLPRPRPRPASTPRP, the “shrunken log2 fold change” value was determined as 0.0489.
Turning to RRIRYRPPRLPRPRPRPNPIPRP, the “shrunken log2 fold change” value is -0.711.
The same measure for RRIRNRPPRLPRPRPRPPAFPRP: 0.0832; for RRIRVRPPRLPRPRPRPEASPRP: 0.0108.
Under RRIRARPPRLPRPRPRPHWWPRP stands 0.5; under RRIRNRPPRLPRPRPRPTQIPRP, 0.135.
For the sequence RRIRFRPPRLPRPRPRPVTGPRP, the “shrunken log2 fold change” value worked out at 0.0131.
Regarding RRIRNRPPRLPRPRPRPRFVPRP, the “shrunken log2 fold change” value is -0.384.
As for RRIRVRPPRLPRPRPRPEQNPRP, the “shrunken log2 fold change” value was determined as 0.316.
For RRIRHRPPRLPRPRPRPNFEPRP, the “shrunken log2 fold change” value amounted to 0.00825.
The same measure for RRIRSRPPRLPRPRPRPTVQPRP: -0.204.
Under RRIRFRPPRLPRPRPRPNYAPRP stands -0.127; under RRIRDRPPRLPRPRPRPYCIPRP, -0.205.
Turning to RRIRCRPPRLPRPRPRPDFIPRP, the “shrunken log2 fold change” value is -0.383.
The same measure for RRIRDRPPRLPRPRPRPSISPRP: -0.0844; for RRIRVRPPRLPRPRPRPNYHPRP: -0.489.
On to RRIRGRPPRLPRPRPRPQKKPRP, for which the “shrunken log2 fold change” value turned out to be 0.0788.
Under RRIRKRPPRLPRPRPRPQENPRP stands 0.256; under RRIRRRPPRLPRPRPRPIRPPRP, 0.198; under RRIRLRPPRLPRPRPRPSFPPRP, -0.159.
Under RRIRARPPRLPRPRPRPRRPPRP stands 0.494.
The same measure for RRIRERPPRLPRPRPRPLYRPRP: -0.474; for RRIRIRPPRLPRPRPRPCTRPRP: 0.0316.
With RRIRNRPPRLPRPRPRPYIRPRP, the “shrunken log2 fold change” value stood at 0.00719.
RRIRERPPRLPRPRPRPWWSPRP: the “shrunken log2 fold change” value was -0.0183.
Under RRIRPRPPRLPRPRPRPRLHPRP stands 0.624.
On to RRIRQRPPRLPRPRPRPCYQPRP, for which the “shrunken log2 fold change” value is -0.0254.
Under RRIRERPPRLPRPRPRPEKSPRP stands -0.14; under RRIRIRPPRLPRPRPRPGHPPRP, -0.212.
The same measure for RRIRDRPPRLPRPRPRPYRMPRP: -0.0515.
Consider RRIRRRPPRLPRPRPRPFTDPRP, for which the “shrunken log2 fold change” value was -0.0197.
Under RRIRWRPPRLPRPRPRPSCCPRP stands 0.174; under RRIRIRPPRLPRPRPRPQCQPRP, -0.153; under RRIRMRPPRLPRPRPRPFVHPRP, -0.178.
In the case of RRIRRRPPRLPRPRPRPKAVPRP, the “shrunken log2 fold change” value came out at 0.0693.
Under RRIRRRPPRLPRPRPRPTVRPRP stands -0.00514.
Under RRIRHRPPRLPRPRPRPQQWPRP stands -0.178.
